Results: the RNAGym collection of RNA variant scans (doi:10.7554/elife.80360)

B1: CPEB3 Ribozyme (parent)
chain: GGGGGCCACAGCAGAAGCGUUCACGUCGCGGCCCCUGUCAGAUUCUGGUGAAUCUGCGAAUUCUGCUGU

Variants of: B1
Experiment: self-cleavage, relative activity (ratio to wild type); higher = more cleavage; co-transcriptional

| Variant | self-cleavage |
| --- | --- |
| GGGGGCCAUAGCAGAAGCGUUCACGUCGCGGCCCCUUUCAGAUUCUGGUGAAUCUGCGAAUUCUGCUGU [C9U G37U] | 0.432 |
| GGGGGCCAUAGCAGAAGCGUUCACGUCGCGGCCCCUCUCAGAUUCUGGUGAAUCUGCGAAUUCUGCUGU [C9U G37C] | 0.224 |
| GGGGGCCAUAGCAGAAGCGUUCACGUCGCGGCCCCUGUCCGAUUCUGGUGAAUCUGCGAAUUCUGCUGU [C9U A40C] | 0.841 |
| GGGGGCCAUAGCAGAAGCGUUCACGUCGCGGCCCCUGUUAGAUUCUGGUGAAUCUGCGAAUUCUGCUGU [C9U C39U] | 0.935 |
| GGGGGCCAUAGCAGAAGCGUUAACGUCGCGGCCCCUGUCAGAUUCUGGUGAAUCUGCGAAUUCUGCUGU [C9U C22A] | 0.226 |
| GGGGGCCAUAGCAGAAGCGUUGACGUCGCGGCCCCUGUCAGAUUCUGGUGAAUCUGCGAAUUCUGCUGU [C9U C22G] | 0.21 |
| GGGGGCCAGAGCAGAAGCGUUCACGUCGCGGCCCCUGCCAGAUUCUGGUGAAUCUGCGAAUUCUGCUGU [C9G U38C] | 0.997 |
| GGGGGCCAUAGCAGAAGCGUUCACGUCGCGGCCUCUGUCAGAUUCUGGUGAAUCUGCGAAUUCUGCUGU [C9U C34U] | 1.01 |
| GGGGGCCAUAGCAGAACCGUUCACGUCGCGGCCCCUGUCAGAUUCUGGUGAAUCUGCGAAUUCUGCUGU [C9U G17C] | 0.32 |
| GGGGGCCAUAGCAGAAUCGUUCACGUCGCGGCCCCUGUCAGAUUCUGGUGAAUCUGCGAAUUCUGCUGU [C9U G17U] | 0.832 |
| GGGGGCCAUAGCAGAAGCGUUCACGUCGCGGCCCCUGUCAGAUUCUGGUGAGUCUGCGAAUUCUGCUGU [C9U A52G] | 0.673 |
| GGGGGCCAUAGCAGAAGCGUUCACGUCGCCGCCCCUGUCAGAUUCUGGUGAAUCUGCGAAUUCUGCUGU [C9U G30C] | 0.981 |
| GGGGGCCAUAGCAGAAGCGUUCACGUCGCAGCCCCUGUCAGAUUCUGGUGAAUCUGCGAAUUCUGCUGU [C9U G30A] | 0.972 |
| GGGGGCCAGAGCAGAAGCGUUCACGUCGCGGCCCCUGUCAGAUUCUGGUGAAUCUGCGAAUUCGGCUGU [C9G U64G] | 0.936 |
| GGGGGCCAUAGCAGAAGCCUUCACGUCGCGGCCCCUGUCAGAUUCUGGUGAAUCUGCGAAUUCUGCUGU [C9U G19C] | 0.143 |
| GGGGGCCAGAGCAGAAGCGUUCACGUCGCGGCCCCUGUCAGAUUCUGGUGAAUCUGCGAAUUCUGCUGC [C9G U69C] | 1.07 |
| GGGGGCCAUAGCAGAAGCGUUCACGUCGCGGCCCCUGUCAGAUUCUGGUGAAUCUUCGAAUUCUGCUGU [C9U G56U] | 0.971 |
| GGGGGCCAUAGCAGAAGCGUUCACGUCGCGGCCCCUGUCAGAUUGUGGUGAAUCUGCGAAUUCUGCUGU [C9U C45G] | 1.07 |
| GGGGGCCAUAGCGGAAGCGUUCACGUCGCGGCCCCUGUCAGAUUCUGGUGAAUCUGCGAAUUCUGCUGU [C9U A13G] | 1.04 |
| GGGGGCCAGAGCAGAAGCGUUCACGUCGCGGCCCCUGUCAGAUUCUGUUGAAUCUGCGAAUUCUGCUGU [C9G G48U] | 1.01 |
| GGGGGCCAUAUCAGAAGCGUUCACGUCGCGGCCCCUGUCAGAUUCUGGUGAAUCUGCGAAUUCUGCUGU [C9U G11U] | 0.945 |
| GGGGGCCAGAGCAGAAGCGUUCACGUCGCGACCCCUGUCAGAUUCUGGUGAAUCUGCGAAUUCUGCUGU [C9G G31A] | 0.936 |
| GGGGGCCAUAGCAGAAGCGUUCACGUCGCGGCCCCUGUCAGAUUCUGGUGAAUCUGCGUAUUCUGCUGU [C9U A59U] | 0.888 |
| GGGGGCCAUAGCAGAAGCGUUCACGUCGCGGCCCCUGUCAGAUUCUGGUGAAUCUGCGCAUUCUGCUGU [C9U A59C] | 0.877 |
| GGGGGCCAGAGCAGAAGCGUUCACGUCGCGGCCCCAGUCAGAUUCUGGUGAAUCUGCGAAUUCUGCUGU [C9G U36A] | 0.256 |
| GGGGGCCAGAGCAGAAGCGUUCACGUCGCGGCCCCUGUCAGAUUCUGGGGAAUCUGCGAAUUCUGCUGU [C9G U49G] | 0.954 |

| Variant | self-cleavage |
| --- | --- |
| GGGGGCCAGAGCAGAAGCGUUCACGUCGCGGCCCCUGUCAGAUUCUGGCGAAUCUGCGAAUUCUGCUGU [C9G U49C] | 1.01 |
| GGGGGCCAGAGCAGAAGCGUUCACGUCGCGGCCCCUGUCAGAUUCUGGAGAAUCUGCGAAUUCUGCUGU [C9G U49A] | 1 |
| GGGGGCCAGAGCAGAAGCGUUCACGUCGCGGCCCCUGUCAGAUUCUGGUGAAUCUGCGAAUUCUGCAGU [C9G U67A] | 0.959 |
| GGGGGCCAGAGCAGAAGCGUUCACGUCGCAGCCCCUGUCAGAUUCUGGUGAAUCUGCGAAUUCUGCUGU [C9G G30A] | 0.975 |
| GGGGGCCAGAGCAGAAGCGUUCACGUCGCCGCCCCUGUCAGAUUCUGGUGAAUCUGCGAAUUCUGCUGU [C9G G30C] | 0.948 |
| GGGGGCCAGAGCAGAAGCGUUCACGUCGCUGCCCCUGUCAGAUUCUGGUGAAUCUGCGAAUUCUGCUGU [C9G G30U] | 0.759 |
| GGGGGCCAUAGCAGAAGCGUUCACAUCGCGGCCCCUGUCAGAUUCUGGUGAAUCUGCGAAUUCUGCUGU [C9U G25A] | 0.306 |
| GGGGGCCAUAGCAGAAGCGUUCACGUCGCGGCCCCUGUCAGAUUCUGGUGAAUCUGGGAAUUCUGCUGU [C9U C57G] | 0.334 |
| GGGGGCCAGAGCAGAAGCGUUCACGUCGCGGCCCCUGUCAGAUUCUGGUGAAACUGCGAAUUCUGCUGU [C9G U53A] | 0.98 |
| GGGGGCCAUAGCAGGAGCGUUCACGUCGCGGCCCCUGUCAGAUUCUGGUGAAUCUGCGAAUUCUGCUGU [C9U A15G] | 1.05 |
| GGGGGCCAUAGCAGUAGCGUUCACGUCGCGGCCCCUGUCAGAUUCUGGUGAAUCUGCGAAUUCUGCUGU [C9U A15U] | 0.931 |
| GGGGGCCAGAGCAGAAGCGUUCACGUCGCGGCCCCUGUCAAAUUCUGGUGAAUCUGCGAAUUCUGCUGU [C9G G41A] | 0.872 |
| GGGGGCCAUAGCAGAAGCGUUCACGUCGCGGCCCCUGUCAGAUUCUGGUGAAUCUGCGAAUUCUGCUGU [C9U] | 1.01 |
| GGGGGCCAUAGCAGAGGCGUUCACGUCGCGGCCCCUGUCAGAUUCUGGUGAAUCUGCGAAUUCUGCUGU [C9U A16G] | 0.956 |
| GGGGGCCAUAGCAGAUGCGUUCACGUCGCGGCCCCUGUCAGAUUCUGGUGAAUCUGCGAAUUCUGCUGU [C9U A16U] | 0.864 |
| GGGGGCCAGAGCAGAAGCGUUCACGUCGCGGCCCCUGUCAGAUUCUGGUGAAUCUGCAAAUUCUGCUGU [C9G G58A] | 1.01 |
| GGGGGCCAUAGCAGAAGCGUUCACGUCGCGGCGCCUGUCAGAUUCUGGUGAAUCUGCGAAUUCUGCUGU [C9U C33G] | 0.974 |
| GGGGGCCAUAGCAGAAGCGUUCACGUCGCGGCCCCUGUCAGAUUCUGGUGAAUUUGCGAAUUCUGCUGU [C9U C54U] | 0.988 |
| GGGGGCCAGAGCAGAAGCGUUCACGUCGCGGCCCCUGUCAGAUUCUUGUGAAUCUGCGAAUUCUGCUGU [C9G G47U] | 1.04 |
| GGGGGCCAGAGCAGAAGCGUUCACGUCGCGGCCCCUGUCAGAUUCUAGUGAAUCUGCGAAUUCUGCUGU [C9G G47A] | 1.05 |
| GGGGGCCAGAGCAGAAGCGUUCACGUCGCGGCCCCUGUCAGAUUCUGGUUAAUCUGCGAAUUCUGCUGU [C9G G50U] | 1.02 |
| GGGGGCCAGAGCAGAAGCGUUCACGUCGCGGCCCCUGUCAGAUUCUGGUAAAUCUGCGAAUUCUGCUGU [C9G G50A] | 1.01 |
| GGGGGCCAGAGCAGAAGCGUUCACGUCCCGGCCCCUGUCAGAUUCUGGUGAAUCUGCGAAUUCUGCUGU [C9G G28C] | 0.149 |
| GGGGGCCAUAGCAGAAGCGUUCACGUCGCGGCCCCUGUCAGAUUCUUGUGAAUCUGCGAAUUCUGCUGU [C9U G47U] | 1.02 |
| GGGGGCCAUAGCAGAAGCGUUCACGUCGCGGCCCCUGUCAGAUUCUCGUGAAUCUGCGAAUUCUGCUGU [C9U G47C] | 1.06 |
| GGGGGCCAGAGCAGAAGCGUUCACGUCGCGGCCCCUGUCAGAUUCUGGUGAAUCUGCGAAGUCUGCUGU [C9G U61G] | 0.958 |

| Variant | self-cleavage |
| --- | --- |
| GGGGGCCAUAGCAGAAGCGUUCACGUCUCGGCCCCUGUCAGAUUCUGGUGAAUCUGCGAAUUCUGCUGU [C9U G28U] | 0.169 |
| GGGGGCCAGAGCAGAAGCGCUCACGUCGCGGCCCCUGUCAGAUUCUGGUGAAUCUGCGAAUUCUGCUGU [C9G U20C] | 0.254 |
| GGGGGCCAGAGCAGAAGCGUUCACGUCGCGGCCCCUGUCAGAUUCCGGUGAAUCUGCGAAUUCUGCUGU [C9G U46C] | 0.937 |
| GGGGGCCAGAGCAGAAGCGUUCACGUCGCGGCCCCUGUCAGAUUCGGGUGAAUCUGCGAAUUCUGCUGU [C9G U46G] | 1 |
| GGGGGCCAUAGCAGAAGCGUUCACGUCGCGGCCCCUGUCAGAUUCUGGUAAAUCUGCGAAUUCUGCUGU [C9U G50A] | 1.02 |
| GGGGGCCAUAGCAGAAGCGUUCACGUCGUGGCCCCUGUCAGAUUCUGGUGAAUCUGCGAAUUCUGCUGU [C9U C29U] | 0.874 |
| GGGGGCCAGAGCAGAAGCGUUCACGUCGCGGCCCCUCUCAGAUUCUGGUGAAUCUGCGAAUUCUGCUGU [C9G G37C] | 0.289 |
| GGGGGCCAGAGCAGAAGCGUUCACGUCGCGGCCCCUAUCAGAUUCUGGUGAAUCUGCGAAUUCUGCUGU [C9G G37A] | 0.371 |
| GGGGGCCAUAGCAGAAGCGUUCACGUCGCGGCCCCUGUCAGAUUCUGGUGAAUCUGCGAUUUCUGCUGU [C9U A60U] | 0.538 |
| GGGGGCCAGAGCAGAAGCGUUCACGUCGCGGCCCCUGUCAGAUUCUGGUGAAUCUACGAAUUCUGCUGU [C9G G56A] | 1.01 |
| GGGGGCCAGAGCAGAAGCGUUCACGUCGCGGCCCCUGUCAGAUUCUGGUGAAUCUUCGAAUUCUGCUGU [C9G G56U] | 0.97 |
| GGGGGCCAGAGCAGAAGCGUUCACGUCGCGGCCCCUGUCAGAUUCUGGUGAAUCUCCGAAUUCUGCUGU [C9G G56C] | 0.924 |
| GGGGGCCAUAGCACAAGCGUUCACGUCGCGGCCCCUGUCAGAUUCUGGUGAAUCUGCGAAUUCUGCUGU [C9U G14C] | 0.747 |
| GGGGGCCAUAGCAUAAGCGUUCACGUCGCGGCCCCUGUCAGAUUCUGGUGAAUCUGCGAAUUCUGCUGU [C9U G14U] | 0.898 |
| GGGGGCCAUAGGAGAAGCGUUCACGUCGCGGCCCCUGUCAGAUUCUGGUGAAUCUGCGAAUUCUGCUGU [C9U C12G] | 0.976 |
| GGGGGCCAUAGUAGAAGCGUUCACGUCGCGGCCCCUGUCAGAUUCUGGUGAAUCUGCGAAUUCUGCUGU [C9U C12U] | 1.01 |
| GGGGGCCAUAGAAGAAGCGUUCACGUCGCGGCCCCUGUCAGAUUCUGGUGAAUCUGCGAAUUCUGCUGU [C9U C12A] | 0.785 |
| GGGGGCCAGAGCAGAAGCGUUCACGUCGCGGCCCCUGUCAGAUGCUGGUGAAUCUGCGAAUUCUGCUGU [C9G U44G] | 0.96 |
| GGGGGCCAUAGCAGAAGCGUUCACGUCGCGGCCCCUGUCAGAUUCUGGUGUAUCUGCGAAUUCUGCUGU [C9U A51U] | 1 |
| GGGGGCCAUAGCAGAAGCGUUCACGUCGCGGCCCCUGUCACAUUCUGGUGAAUCUGCGAAUUCUGCUGU [C9U G41C] | 0.949 |
| GGGGGCCAUAGCAGAAGCGUUCACGUCGCGGCCCCUGUCAUAUUCUGGUGAAUCUGCGAAUUCUGCUGU [C9U G41U] | 0.974 |
| GGGGGCCAUAGCAGAAGCGUUCACGUCGCGGCCCCUGUCAGAUUCUGCUGAAUCUGCGAAUUCUGCUGU [C9U G48C] | 1.02 |
| GGGGGCCAUAGCAGAAGCGUUCACGUGGCGGCCCCUGUCAGAUUCUGGUGAAUCUGCGAAUUCUGCUGU [C9U C27G] | 0.203 |
| GGGGGCCAGAGCAGAAGCGUUCACGUCGCGGCCCCUGUCAGAUUCUGGUGAAUCAGCGAAUUCUGCUGU [C9G U55A] | 0.929 |
| GGGGGCCAUAGCAGAAGCGUUCACGUCGCGGUCCCUGUCAGAUUCUGGUGAAUCUGCGAAUUCUGCUGU [C9U C32U] | 1.02 |
| GGGGGCCAUAGCAGAAGCGUUCACGUCGCGGCCCCUGUCAGAUUCUGGUGAAUCUGCGAAUUCUGGUGU [C9U C66G] | 0.921 |
